PMC4810121, “Proteomics Analysis Reveals Novel RASSF2 Interaction Partners” (Cancers, 2016)

Target: T1, RASSF2 (expression construct precipitated with anti-Flag) (UniProt P50749 1-326)
T1 construct: RASSF2; The methods describe no Flag-tagged construct; That RASSF2 carried the Flag tag is surmised, because C1QBP is the GFP-tagged partner and the blot used anti-Flag and anti-GFP; source: HEK-293T, transfected, in lysate
T1 sequence (looked up): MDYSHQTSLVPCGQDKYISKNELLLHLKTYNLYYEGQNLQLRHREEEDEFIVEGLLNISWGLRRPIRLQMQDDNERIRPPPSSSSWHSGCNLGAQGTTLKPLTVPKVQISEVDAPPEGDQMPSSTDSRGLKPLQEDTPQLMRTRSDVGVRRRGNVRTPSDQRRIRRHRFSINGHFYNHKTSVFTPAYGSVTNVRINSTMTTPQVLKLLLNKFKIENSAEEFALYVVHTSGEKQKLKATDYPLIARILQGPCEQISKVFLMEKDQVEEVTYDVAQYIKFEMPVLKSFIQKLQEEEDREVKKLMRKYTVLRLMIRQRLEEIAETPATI
Assay: co-IP; HEK-293T co-transfected with RASSF2, C1QBP and with or without activated K-Ras for 24 hours; lysates immunoprecipitated with anti-Flag, blotted with anti-Flag and anti-GFP
Conditions: partners not purified

B1: GFP-C1QBP (natural protein, UniProt Q07021 74-282, looked up)
chain: LHTDGDKAFVDFLSDEIKEERKIQKHKTLPKMSGGWELELNGTEAKLVRKVAGEKITVTFNINNSIPPTFDGEEEPSQGQKVEEQEPELTSTPNFVVEVIKNDDGKKALVLDCHYPEDEVGQEDEAESDIFSIREVSFQSTGESEWKDTNYTLNTDSLDWALYDHLMDFLADRGVDNTFADELVELSTALEHQEYITFLEDLKSFVKSQ
notes: C1QBP; cDNA from GeneCopoeia, PCR amplified and cloned into pEGFP-C1; source: HEK-293T, transfected, in lysate
Question: For B1, which “fold change of the co-precipitate with activated Ras against without” value is on record?
Answer: The value was ~2 fold.
